# Legend:
# [1] = target: truncated TSH receptor chimera B (extracellular portion) fused with the secretory alkaline phosphatase (human TSHR with rat LH-CGR subsequence); assay: bridge assay: standard at 0.3 IU/L on plate-bound TSH receptor chimera B, detected with SEAP-chimera B; RLU relative to zero serum
# [2] = target: truncated TSH receptor chimera B (extracellular portion) fused with the secretory alkaline phosphatase (human TSHR with rat LH-CGR subsequence); assay: bridge assay: standard at 15.0 IU/L on plate-bound TSH receptor chimera B, detected with SEAP-chimera B, chemiluminescence
# [3] = target: truncated TSH receptor chimera B (extracellular portion) fused with the secretory alkaline phosphatase (human TSHR with rat LH-CGR subsequence); assay: bridge assay: standard at 0.4 IU/L on plate-bound TSH receptor chimera B, detected with SEAP-chimera B, chemiluminescence
# [4] = target: truncated TSH receptor chimera B (extracellular portion) fused with the secretory alkaline phosphatase (human TSHR with rat LH-CGR subsequence); assay: bridge assay: standard at 0.7 IU/L on plate-bound TSH receptor chimera B, detected with SEAP-chimera B; RLU relative to zero serum
# [5] = target: truncated TSH receptor chimera B (extracellular portion) fused with the secretory alkaline phosphatase (human TSHR with rat LH-CGR subsequence); assay: bridge assay: standard at 5.0 IU/L on plate-bound TSH receptor chimera B, detected with SEAP-chimera B, chemiluminescence
# [6] = target: truncated TSH receptor chimera B (extracellular portion) fused with the secretory alkaline phosphatase (human TSHR with rat LH-CGR subsequence); assay: bridge assay: standard at 0.1 IU/L on plate-bound TSH receptor chimera B, detected with SEAP-chimera B, chemiluminescence
# [7] = target: truncated TSH receptor chimera B (extracellular portion) fused with the secretory alkaline phosphatase (human TSHR with rat LH-CGR subsequence); assay: bridge assay: standard at 0.5 IU/L on plate-bound TSH receptor chimera B, detected with SEAP-chimera B; RLU relative to zero serum
# [8] = target: truncated TSH receptor chimera B (extracellular portion) fused with the secretory alkaline phosphatase (human TSHR with rat LH-CGR subsequence); assay: bridge assay: standard at 0.7 IU/L on plate-bound TSH receptor chimera B, detected with SEAP-chimera B, chemiluminescence
# [9] = target: truncated TSH receptor chimera B (extracellular portion) fused with the secretory alkaline phosphatase (human TSHR with rat LH-CGR subsequence); assay: bridge assay: standard at 50.0 IU/L on plate-bound TSH receptor chimera B, detected with SEAP-chimera B; RLU relative to zero serum
# [10] = target: truncated TSH receptor chimera B (extracellular portion) fused with the secretory alkaline phosphatase (human TSHR with rat LH-CGR subsequence); assay: bridge assay: standard at 0.2 IU/L on plate-bound TSH receptor chimera B, detected with SEAP-chimera B; RLU relative to zero serum
# [11] = target: truncated TSH receptor chimera B (extracellular portion) fused with the secretory alkaline phosphatase (human TSHR with rat LH-CGR subsequence); assay: bridge assay: standard at 30.0 IU/L on plate-bound TSH receptor chimera B, detected with SEAP-chimera B; RLU relative to zero serum
# [12] = target: truncated TSH receptor chimera B (extracellular portion) fused with the secretory alkaline phosphatase (human TSHR with rat LH-CGR subsequence); assay: bridge assay: standard at 5.0 IU/L on plate-bound TSH receptor chimera B, detected with SEAP-chimera B; RLU relative to zero serum
# [13] = target: truncated TSH receptor chimera B (extracellular portion) fused with the secretory alkaline phosphatase (human TSHR with rat LH-CGR subsequence); assay: bridge assay: standard at 0.6 IU/L on plate-bound TSH receptor chimera B, detected with SEAP-chimera B; RLU relative to zero serum
# [14] = target: truncated TSH receptor chimera B (extracellular portion) fused with the secretory alkaline phosphatase (human TSHR with rat LH-CGR subsequence); assay: bridge assay: standard at 0.5 IU/L on plate-bound TSH receptor chimera B, detected with SEAP-chimera B, chemiluminescence
# [15] = target: truncated TSH receptor chimera B (extracellular portion) fused with the secretory alkaline phosphatase (human TSHR with rat LH-CGR subsequence); assay: bridge assay: standard at 15.0 IU/L on plate-bound TSH receptor chimera B, detected with SEAP-chimera B; RLU relative to zero serum
# [16] = target: truncated TSH receptor chimera B (extracellular portion) fused with the secretory alkaline phosphatase (human TSHR with rat LH-CGR subsequence); assay: bridge assay: standard at 2.0 IU/L on plate-bound TSH receptor chimera B, detected with SEAP-chimera B, chemiluminescence
# [17] = target: truncated TSH receptor chimera B (extracellular portion) fused with the secretory alkaline phosphatase (human TSHR with rat LH-CGR subsequence); assay: bridge assay: standard at 0.6 IU/L on plate-bound TSH receptor chimera B, detected with SEAP-chimera B, chemiluminescence
# [18] = target: truncated TSH receptor chimera B (extracellular portion) fused with the secretory alkaline phosphatase (human TSHR with rat LH-CGR subsequence); assay: bridge assay: standard at 30.0 IU/L on plate-bound TSH receptor chimera B, detected with SEAP-chimera B, chemiluminescence
# [19] = target: truncated TSH receptor chimera B (extracellular portion) fused with the secretory alkaline phosphatase (human TSHR with rat LH-CGR subsequence); assay: bridge assay: standard at 50.0 IU/L on plate-bound TSH receptor chimera B, detected with SEAP-chimera B, chemiluminescence
# [20] = target: truncated TSH receptor chimera B (extracellular portion) fused with the secretory alkaline phosphatase (human TSHR with rat LH-CGR subsequence); assay: bridge assay: standard at 0.4 IU/L on plate-bound TSH receptor chimera B, detected with SEAP-chimera B; RLU relative to zero serum
# [21] = target: truncated TSH receptor chimera B (extracellular portion) fused with the secretory alkaline phosphatase (human TSHR with rat LH-CGR subsequence); assay: bridge assay: standard at 0.9 IU/L on plate-bound TSH receptor chimera B, detected with SEAP-chimera B, chemiluminescence
# [22] = target: truncated TSH receptor chimera B (extracellular portion) fused with the secretory alkaline phosphatase (human TSHR with rat LH-CGR subsequence); assay: bridge assay: standard at 1.0 IU/L on plate-bound TSH receptor chimera B, detected with SEAP-chimera B; RLU relative to zero serum
# [23] = target: truncated TSH receptor chimera B (extracellular portion) fused with the secretory alkaline phosphatase (human TSHR with rat LH-CGR subsequence); assay: bridge assay: standard at 0.1 IU/L on plate-bound TSH receptor chimera B, detected with SEAP-chimera B; RLU relative to zero serum
# [24] = target: truncated TSH receptor chimera B (extracellular portion) fused with the secretory alkaline phosphatase (human TSHR with rat LH-CGR subsequence); assay: bridge assay: standard at 2.0 IU/L on plate-bound TSH receptor chimera B, detected with SEAP-chimera B; RLU relative to zero serum
# [25] = target: truncated TSH receptor chimera B (extracellular portion) fused with the secretory alkaline phosphatase (human TSHR with rat LH-CGR subsequence); assay: bridge assay: standard at 0.3 IU/L on plate-bound TSH receptor chimera B, detected with SEAP-chimera B, chemiluminescence
# [26] = target: truncated TSH receptor chimera B (extracellular portion) fused with the secretory alkaline phosphatase (human TSHR with rat LH-CGR subsequence); assay: bridge assay: standard at 1.0 IU/L on plate-bound TSH receptor chimera B, detected with SEAP-chimera B, chemiluminescence
# [27] = target: truncated TSH receptor chimera B (extracellular portion) fused with the secretory alkaline phosphatase (human TSHR with rat LH-CGR subsequence); assay: bridge assay: standard at 0.2 IU/L on plate-bound TSH receptor chimera B, detected with SEAP-chimera B, chemiluminescence
# [28] = target: truncated TSH receptor chimera B (extracellular portion) fused with the secretory alkaline phosphatase (human TSHR with rat LH-CGR subsequence); assay: bridge assay: standard at 0.9 IU/L on plate-bound TSH receptor chimera B, detected with SEAP-chimera B; RLU relative to zero serum
# [29] = target: truncated TSH receptor chimera B (extracellular portion) fused with the secretory alkaline phosphatase (human TSHR with rat LH-CGR subsequence); assay: bridge assay: standard at 0.8 IU/L on plate-bound TSH receptor chimera B, detected with SEAP-chimera B, chemiluminescence
# [30] = target: truncated TSH receptor chimera B (extracellular portion) fused with the secretory alkaline phosphatase (human TSHR with rat LH-CGR subsequence); assay: bridge assay: standard at 0.8 IU/L on plate-bound TSH receptor chimera B, detected with SEAP-chimera B; RLU relative to zero serum
# truncated TSH receptor chimera B (extracellular portion) fused with the secretory alkaline phosphatase (human TSHR with rat LH-CGR subsequence), sequence (chain, as listed by the source mutant): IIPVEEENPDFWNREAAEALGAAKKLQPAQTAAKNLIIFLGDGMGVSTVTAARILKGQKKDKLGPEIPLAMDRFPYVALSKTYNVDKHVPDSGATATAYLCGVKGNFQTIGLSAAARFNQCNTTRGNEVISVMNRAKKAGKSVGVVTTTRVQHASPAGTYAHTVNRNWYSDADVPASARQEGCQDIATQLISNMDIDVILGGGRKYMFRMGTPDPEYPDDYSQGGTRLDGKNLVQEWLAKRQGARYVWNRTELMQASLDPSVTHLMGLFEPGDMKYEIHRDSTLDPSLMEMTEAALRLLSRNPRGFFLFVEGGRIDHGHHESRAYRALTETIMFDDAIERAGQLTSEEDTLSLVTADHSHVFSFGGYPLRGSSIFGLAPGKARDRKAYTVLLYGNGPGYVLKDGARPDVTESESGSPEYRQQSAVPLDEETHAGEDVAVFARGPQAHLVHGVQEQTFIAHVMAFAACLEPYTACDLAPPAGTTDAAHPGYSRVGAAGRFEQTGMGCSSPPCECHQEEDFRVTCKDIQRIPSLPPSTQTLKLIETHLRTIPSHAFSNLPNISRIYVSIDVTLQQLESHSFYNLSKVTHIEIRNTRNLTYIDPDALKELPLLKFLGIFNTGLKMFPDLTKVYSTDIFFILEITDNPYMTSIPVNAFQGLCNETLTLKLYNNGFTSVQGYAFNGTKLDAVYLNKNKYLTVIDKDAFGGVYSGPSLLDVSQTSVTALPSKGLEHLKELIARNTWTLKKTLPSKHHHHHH
substance,measurement,setting,value
standard solution WHO 90/672 with a standardized concentration of autoimmune antibody (TSH receptor auto-antibody standard),B/B0,[1],9.57
same,RLU Average n = 3,[2],2.48e+06 RLU
same,RLU Average n = 3,[3],81500 RLU
same,B/B0,[4],19.7
same,RLU Average n = 3,[5],939000 RLU
same,RLU Average n = 3,[6],28800 RLU
same,B/B0,[7],14.3
same,RLU Average n = 3,[8],136000 RLU
same,B/B0,[9],704
same,B/B0,[10],6.77
same,B/B0,[11],548
same,B/B0,[12],136
same,B/B0,[13],16.9
same,RLU Average n = 3,[14],98400 RLU
same,B/B0,[15],361
same,RLU Average n = 3,[16],382000 RLU
same,RLU Average n = 3,[17],117000 RLU
same,RLU Average n = 3,[18],3.77e+06 RLU
same,RLU Average n = 3,[19],4.85e+06 RLU
same,B/B0,[20],11.8
same,RLU Average n = 3,[21],192000 RLU
same,B/B0,[22],26.6
same,B/B0,[23],4.19
same,B/B0,[24],55.5
same,RLU Average n = 3,[25],65800 RLU
same,RLU Average n = 3,[26],183000 RLU
same,RLU Average n = 3,[27],46600 RLU
same,B/B0,[28],27.9
same,RLU Average n = 3,[29],166000 RLU
same,B/B0,[30],24.1

# From patent publication US8999727
